Laboratory results as given in EP1706427B1 (Crucell Holland B.V., dated 2011).
Positions count from the first letter of the chain named.

B1: human anti-human CD1a monoclonal antibody CR2114 (antibody, human IgG1, kappa, V domains shown)
VH: EVQLVESGGGLVQPGGSLRLSCAASGFTFSSYSMNWVRQAPGKGLEWVSYISSSSSTIYYADSVKGRFTISRDNAKNSLYLQMNSLRDEDTAVYYCAKETWWQSFDYWGQGTLVTVSS
VL: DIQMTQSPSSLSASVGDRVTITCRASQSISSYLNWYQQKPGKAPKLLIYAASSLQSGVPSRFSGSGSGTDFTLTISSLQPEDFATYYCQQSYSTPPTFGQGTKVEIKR
notes: Human IgG1 kappa made in 293T cells; Used unlabelled and biotinylated; also called 02-114
B2: human anti-human CD1a monoclonal antibody CR2113 (antibody, human IgG1, kappa, V domains shown)
VH: QVQLQESGAGLLKPSETLSLTCAVYGGSFSGYYWSWIRQPPGKGLEWIGYIYYSGSTNYNPSLKSRVTISVDTSKNQFSLKLSSVTAADTAVYYCAKAPYMMYFDSWGQGTLVTVSS
VL: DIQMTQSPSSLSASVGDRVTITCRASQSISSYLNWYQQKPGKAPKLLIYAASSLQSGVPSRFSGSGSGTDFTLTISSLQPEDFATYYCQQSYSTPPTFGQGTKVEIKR
notes: Human IgG1 kappa made in 293T cells, purified over protein A and size exclusion; Used unlabelled and biotinylated; also called 02-113
B3: human anti-human CD1a monoclonal antibody CR2117 (antibody, human IgG1, kappa, V domains shown)
VH: EVQLVESGGGLVHPGGSLRLSCAGSGFTFSSYAMHWVRQAPGKGLEWVSAIGTGGGTYYADSVKGRFTISRDNAKNSLYLQMNSLRAEDTAVYYCARSTPWFSFDYWGQGTLVTVSS
VL: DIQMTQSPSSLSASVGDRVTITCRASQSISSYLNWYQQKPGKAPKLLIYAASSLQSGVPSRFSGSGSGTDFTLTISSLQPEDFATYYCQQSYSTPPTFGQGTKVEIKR
notes: Human IgG1 kappa made in 293T cells; Used unlabelled and biotinylated; also called 02-117
B4: human anti-human CD1a monoclonal antibody CR2118 (antibody, human IgG1, kappa, V domains shown)
VH: B3 VH with G52S, T99A, P100W, F102L, Y106S
VL: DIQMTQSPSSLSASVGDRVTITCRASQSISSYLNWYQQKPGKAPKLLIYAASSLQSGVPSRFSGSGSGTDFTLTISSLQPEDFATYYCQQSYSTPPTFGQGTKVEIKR
notes: Human IgG1 kappa made in 293T cells; Used unlabelled and biotinylated; also called 02-118

Legend:
murine CD1a = molecular target: T1, murine CD1a (mouse); assay: flow cytometry on mouse thymocytes, Kolmogorov-Smirnov D-value
T1 construct: whole, on cells; no mouse CD1a entry is known to me; also called mouse thymocytes

murine CD1d = molecular target: T2, murine CD1d (mouse, UniProt P11609 22-336); assay: as above
T2 construct: whole, on cells; also called mouse thymocytes
T2 sequence (looked up): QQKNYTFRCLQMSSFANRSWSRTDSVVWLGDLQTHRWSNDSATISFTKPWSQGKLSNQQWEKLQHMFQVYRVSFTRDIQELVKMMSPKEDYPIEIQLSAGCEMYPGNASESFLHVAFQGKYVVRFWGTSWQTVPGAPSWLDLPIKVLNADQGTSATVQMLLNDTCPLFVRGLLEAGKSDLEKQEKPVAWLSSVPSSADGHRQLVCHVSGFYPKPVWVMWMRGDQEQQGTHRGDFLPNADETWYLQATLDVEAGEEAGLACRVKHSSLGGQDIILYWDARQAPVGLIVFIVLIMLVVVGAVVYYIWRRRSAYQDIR

Binder | D-value (murine CD1a) | D-value (murine CD1d)
B1 | 0 | 0
B2 | 0 | 0
B3 | 0 | 0
B4 | 0 | 0
